In patent publication US20180194847A1 (SEOUL NATIONAL UNIVERSITY R AND DB FOUNDATION, published 2018):

Target: T1, recombinant human CD154 protein (human, UniProt P29965 47-261, limits assumed)
T1 construct: This protein was immobilised on the SPR chip; also called human CD154 antigen
T1 sequence: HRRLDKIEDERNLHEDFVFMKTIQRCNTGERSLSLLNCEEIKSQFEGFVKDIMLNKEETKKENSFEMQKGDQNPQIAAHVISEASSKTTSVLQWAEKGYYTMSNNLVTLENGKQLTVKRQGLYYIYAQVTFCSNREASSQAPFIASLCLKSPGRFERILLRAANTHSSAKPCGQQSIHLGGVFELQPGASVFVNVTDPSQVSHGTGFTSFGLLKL
Assay: SPR (Reichert SR7500DC), CD154 immobilised on chip, antibody in flow
Method: The binding affinity KD of each of the RD-05 mouse antibody and IgG4 and IgG4 (L115E) RD-05 chimeric antibodies, produced as described above, for human CD154 antigen, was measured using an SPR method by Woojung BSC, Inc. (Suwon, Gyeonggi-do, Korea). Specifically, 17.5 μg/ml of recombinant human CD154 protein in immobilization buffer (10 mM sodium acetate, pH 6.0) was attached to a CMDH gold chip (Cat#13206066, Reichert Technologies, Depew, N.Y., USA) at a density of 2300 RU (resonance unit; 1 RU=1 pg/mm² surface area), after which 3.125 μg/ml of bovine serum albumin was attached at a density of 650 RU. The RD-05 antibody was diluted in PBS at […], 1.25, 2.5, 5, 10, 20, 40, 80, 160, 320, 2560 and 5120 nM. […] Based on the determined values, the KD values were calculated.

B1: RD-05 mouse antibody (antibody, V domains shown)
VH: DVQLQESGPGLVKPSQSLSLTCTVTGYSITSDYAWNWIRQFPGNKLEWMGYITYSGTTSYNPSLKSRISLTRDTSKNQFFLQLNAVTTEDTATYYCARSPYYGPWYFDVWGAGTTVTVSS
VL: DIVLTQSPASLTVSLGQRATISCKASQSVDYDGDSYLHWYQQKPGQPPKLLIYAASYLESGIPARFSGSGSGTDFTLNIHPVEEEDAATYYCQQSNEDPNTFGGGTKLEIKR
notes: Mouse monoclonal antibody from the hybridoma, kappa light chain; also called mouse RD-05 antibody; anti-human CD154 antibody
Binder B1 has a Kd of 37 nM.
